Tests used:
[1] = target: T1, human IGF2^1-67 (mature insulin-like growth factor 2) (human, UniProt P01344 25-91, biotinylated (site not stated) where immobilised on the chip (Tables 1-4)); test: SPR kinetic, Fc fusion captured by anti-human IgG, pH 7.4
T1 construct: mature; also called mature IGF2; biotinylated IGF2
Method: (§1) SPR analysis of the interaction of recombinant IGF1 and IGF2 forms with Fc-domain 11 proteins immobilised by antibody capture (CM5 chip containing monoclonal mouse anti-human IgG antibody immobilised by amine coupling). Measurements were carried out at 25° C. in HBS-EP buffer (pH 7.4).
(§2) Final kinetic analysis of mutants by SPR was conducted using a Biacore T200 biosensor at 25° C. in either HBS-EP (10 mM HEPES pH 7.4, 150 mM NaCl, 3 mM EDTA, and 0.005% (v/v) surfactant P20) or MES-EP (20 mM MES pH 6.5, 150 mM NaCl, 3 mM EDTA, and 0.005% (v/v) surfactant P20) at a flow-rate of 40 μL min⁻¹. […] For the analysis of the Fc-domain 11^AB5 interaction, approximately 50 RU of a biotinylated IGF2:biotinylated ubiquitin mixture (1:8 proportion) was immobilized on the CM5-streptavidin chip. This interaction was also analysed by immobilizing the Fc-domain 11^AB5 and Fc-domain 11^AB5-RHH (or Fc-domain 11^I1572A as control) by Human Antibody Capture (monoclonal mouse anti-human IgG antibody immobilised on a CM5 chip by amine coupling, GE Healthcare) with and without human IgG1 Fc fragment (Bethyl Laboratories, UK) in the control flow cell. […] T200 BiaEvaluation software (GE Healthcare) was used to fit the resulting curves according to a 1:1 binding model. Steady state affinities were determined using the kinetic data, taking the response average at 5 seconds before injection end and for 5 seconds average. Thermodynamic data was performed across the temperature range of 10° C. to 30° C., van't Hoff and Erying plots generated and ΔH, −TΔS and ΔG values determined as previously described.

pro-IGF2^1-104 = pro-IGF2^1-104 (UniProt P01344 25-128); test: as above
Method: as §1, §2

pro-IGF2^1-156 = target: T2, pro-IGF2^1-156 (UniProt P01344 25-180); test: as above
T2 construct: range 1-156
Method: as §1, §2

[2] = target: T1, human IGF2^1-67 (mature insulin-like …); test: SPR kinetic, biotin-IGF2 on chip
Method: as §2

[3] = target: T1, human IGF2^1-67 (mature insulin-like …); test: SPR steady state, biotin-IGF2 on chip
Method: as §2

[4] = target: T1, human IGF2^1-67 (mature insulin-like …); test: SPR kinetic, biotin-IGF2 on chip, pH 7.4
Excerpt: (§3) Surface plasmon resonance (SPR) binding analysis of recombinant M6P/IGF2R domain 11 mutants interaction with IGF2. Kon indicates association (on) rate; koff, dissociation (off) rate; RU, response units. Binding to IGF2 assessed with BIAcore T200 using purified biotinylated IGF2 and IGF1 on a streptavidin biosensor chip. Recombinant proteins were expressed either in E. coli and/or P. pastoris. All the mutants in the FG and CD loops are on the domain 11^AB5 background for the AB loop unless otherwise stated. All experiments were carried out at 25° C. in HBS-EP buffer (pH 7.4), were repeated 2-5 times on two independent BIAcore chips. nd=not determined. Data for KD expressed as mean of each experiment, and means of kon and koff are shown.
as §2, with “average.” for “average. Thermodynamic data was performed across the temperature range of 10° C. to 30° C., van't Hoff and Erying plots generated and ΔH, −TΔS and ΔG values determined as previously described.”

[5] = target: T1, human IGF2^1-67 (mature insulin-like …); test: SPR kinetic, biotin-IGF2 on chip, pH 6.5
Method: Measurements were carried out at 25° C. in MES-EP buffer, 20 mM MES pH 6.5, 150 mM NaCl, 3 mM EDTA, and 0.005% (v/v) surfactant P20). Data for KD expressed as mean of each experiment, and means of kon and koff are shown.
as §2

[6] = target: T1, human IGF2^1-67 (mature insulin-like …); test: SPR steady state, biotin-IGF2 on chip, pH 7.4
Excerpt: as §3
as §2, with “average.” for “average. Thermodynamic data was performed across the temperature range of 10° C. to 30° C., van't Hoff and Erying plots generated and ΔH, −TΔS and ΔG values determined as previously described.”

[7] = target: T1, human IGF2^1-67 (mature insulin-like …); test: SPR kinetic, biotin-IGF2 on chip, pH 7.4; remark: listed apart in the source
Method: as §2

[8] = target: T1, human IGF2^1-67 (mature insulin-like …); test: SPR steady state, biotin-IGF2 on chip, pH 7.4; remark: listed apart in the source
Method: as §2

[9] = target: T1, human IGF2^1-67 (mature insulin-like …); test: SPR
Excerpt: as §3
as §2, with “model.” for “model. Steady state affinities were determined using the kinetic data, taking the response average at 5 seconds before injection end and for 5 seconds average. Thermodynamic data was performed across the temperature range of 10° C. to 30° C., van't Hoff and Erying plots generated and ΔH, −TΔS and ΔG values determined as previously described.”

[10] = target: T1, human IGF2^1-67 (mature insulin-like …); test: SPR (Biacore T200, 25 °C, HBS-EP pH 7.4); ΔΔG° = RT ln(KD mutant / KD domain 11^AB3); box AB+FG
Method: Boxes show the change in the binding free energy contribution, ΔΔGº, for the indicated mutants. The loop/s that contains the mutation/s is indicated in each box. The ΔΔGº values were calculated as ΔΔGº=ΔGº domain 11^mutant−ΔGº domain 11^AB3=RTln(KD domain 11^mutant/KD domain 11^AB3). Additive and non-additive contributions of single point mutations are shown when calculated with a box solid line and dashed line, respectively.
as §2, with “average.” for “average. Thermodynamic data was performed across the temperature range of 10° C. to 30° C., van't Hoff and Erying plots generated and ΔH, −TΔS and ΔG values determined as previously described.”

Chain of pro-IGF2^1-104 (P01344 25-128 limits assumed): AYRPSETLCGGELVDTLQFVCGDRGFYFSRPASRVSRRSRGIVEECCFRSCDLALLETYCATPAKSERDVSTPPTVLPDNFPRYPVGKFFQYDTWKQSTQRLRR
T1 sequence (P01344 25-91): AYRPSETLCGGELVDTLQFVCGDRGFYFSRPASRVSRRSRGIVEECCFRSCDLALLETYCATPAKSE
T2 sequence (P01344 25-180 limits assumed): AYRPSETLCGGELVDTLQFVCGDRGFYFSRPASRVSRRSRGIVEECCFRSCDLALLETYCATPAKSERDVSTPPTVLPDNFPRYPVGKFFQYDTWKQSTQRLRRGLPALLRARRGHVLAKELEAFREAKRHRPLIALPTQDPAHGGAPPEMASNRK

Row | Binder | Kd [2] | koff [2] | kon [2] | Kd [3] | Kd [4] | koff [4] | kon [4] | Kd [6] | ΔΔG [10] | also measured
1 | Fc-domain 11^AB5-RHH (IGF2-TRAP) (Fc fusion, not shown: a dimerising Fc or GST, RHH is not defined in words; read as Q1569R P1597H S1602H on AB5; IgG2 Fc is stated for the CHO product; also called IgG2 Fc-domain 11^AB5-RHH; Fc-domain 11^RHH) NEHDDCQVTNPSTGHLFDLSSLSGRAGFTAAYAKGWGVYMSICGENENCPPGVGACFGRTRISVGKANKRLRYVDQVLQLVYKDGSHCPSKHGLSYKSVISFVCRPEAGPTNRPMLISLDKQTCTLFFSWHTPLACEQAT |  |  |  |  |  |  |  |  |  | Kd [1]: 0.54 nM; koff [1]: 0.0014 s⁻¹; kon [1]: 2.6e+06 M⁻¹ s⁻¹; Kd (pro-IGF2^1-104): 0.39 nM; koff (pro-IGF2^1-104): 0.0005 s⁻¹; kon (pro-IGF2^1-104): 1.29e+06 M⁻¹ s⁻¹; Kd (pro-IGF2^1-156): 1.13 nM; koff (pro-IGF2^1-156): 0.0003 s⁻¹; kon (pro-IGF2^1-156): 230000 M⁻¹ s⁻¹
2 | Fc-domain 11^I1572A fusion protein (Fc fusion, not shown: human IgG Fc) NEHDDCQVTNPSTGHLFDLSSLSGRAGFTAAYSEKGLVYMSICGENENCPPGVGACFGQTRASVGKANKRLRYVDQVLQLVYKDGSPCPSKSGLSYKSVISFVCRPEAGPTNRPMLISLDKQTCTLFFSWHTPLACEQAT |  |  |  |  |  |  |  |  |  | Kd (pro-IGF2^1-104): 4.41 nM; koff (pro-IGF2^1-104): 0.002 s⁻¹; kon (pro-IGF2^1-104): 520000 M⁻¹ s⁻¹; Kd (pro-IGF2^1-156): 2.71 nM; koff (pro-IGF2^1-156): 0.0008 s⁻¹; kon (pro-IGF2^1-156): 290000 M⁻¹ s⁻¹
3 | IGF2R domain 11^WT (receptor, Soluble His6-tagged domain 11 from P. pastoris and/or E. coli; also called wild-type domain 11) MKSNEHDDCQVTNPSTGHLFDLSSLSGRAGFTAAYSEKGLVYMSICGENENCPPGVGACFGQTRISVGKANKRLRYVDQVLQLVYKDGSPCPSKSGLSYKSVISFVCRPEAGPTNRPMLISLDKQTCTLFFSWHTPLACEQATECSV | 46 nM | 0.23 s⁻¹ | 5e+06 M⁻¹ s⁻¹ | 64 nM | 46 nM | 0.23 s⁻¹ | 5e+06 M⁻¹ s⁻¹ | 64 nM |  | Kd [5]: 35.1 nM; koff [5]: 0.144 s⁻¹; kon [5]: 2.68e+06 M⁻¹ s⁻¹
4 | IGF2R domain 11^AB3 (receptor, His6-tagged soluble domain 11; also called domain 11^E1544K, K1545S, L1547V; 1542YSKSGV1547) MKSNEHDDCQVTNPSTGHLFDLSSLSGRAGFTAAYSKSGVVYMSICGENENCPPGVGACFGQTRISVGKANKRLRYVDQVLQLVYKDGSPCPSKSGLSYKSVISFVCRPEAGPTNRPMLISLDKQTCTLFFSWHTPLACEQATECSV | 15.3 nM | 0.044 s⁻¹ | 2.76e+06 M⁻¹ s⁻¹ | 15.5 nM | 15.3 nM | 0.044 s⁻¹ | 2.76e+06 M⁻¹ s⁻¹ | 15.5 nM |  | Kd [7]: 15.3 nM; koff [7]: 0.044 s⁻¹; kon [7]: 2.76e+06 M⁻¹ s⁻¹; Kd [5]: 11.8 nM; koff [5]: 0.0381 s⁻¹; kon [5]: 3.43e+06 M⁻¹ s⁻¹; Kd [8]: 15.5 nM
5 | domain 11^AB5 G1603K (receptor, See m5) MKSNEHDDCQVTNPSTGHLFDLSSLSGRAGFTAAYAKGWGVYMSICGENENCPPGVGACFGQTRISVGKANKRLRYVDQVLQLVYKDGSPCPSKSKLSYKSVISFVCRPEAGPTNRPMLISLDKQTCTLFFSWHTPLACEQATECSV |  |  |  |  | 2.73 nM | 0.0121 s⁻¹ | 4.66e+06 M⁻¹ s⁻¹ | 4.54 nM | -1.02 kcal/mol | fold improvement of affinity [9]: ≤ 2 fold
6 | domain 11^AB5 P1597H (receptor, See m5) MKSNEHDDCQVTNPSTGHLFDLSSLSGRAGFTAAYAKGWGVYMSICGENENCPPGVGACFGQTRISVGKANKRLRYVDQVLQLVYKDGSHCPSKSGLSYKSVISFVCRPEAGPTNRPMLISLDKQTCTLFFSWHTPLACEQATECSV |  |  |  |  |  |  |  |  | -1.23 kcal/mol | Kd [7]: 1.9 nM; koff [7]: 0.007 s⁻¹; kon [7]: 3.68e+06 M⁻¹ s⁻¹; Kd [8]: 2.79 nM
7 | domain 11^AB5 S1602H (receptor, See m5) MKSNEHDDCQVTNPSTGHLFDLSSLSGRAGFTAAYAKGWGVYMSICGENENCPPGVGACFGQTRISVGKANKRLRYVDQVLQLVYKDGSPCPSKHGLSYKSVISFVCRPEAGPTNRPMLISLDKQTCTLFFSWHTPLACEQATECSV |  |  |  |  | 3.19 nM | 0.0112 s⁻¹ | 3.61e+06 M⁻¹ s⁻¹ | 5.44 nM | -0.93 kcal/mol | fold improvement of affinity [9]: ≤ 2 fold
8 | domain 11^WT + 312G (HI-VKLM) (receptor, See m5; Protein quality poor) MKSNEHDDCQVTNPSTGHLFDLSSLSGRAGFTAAYSEKGLVYMSICGENENCPPGVGACFGQTRISVGKANKRLRYVDQVLQLVYKDGSPCPSKSGLSYKSVISFVCRPEAGPTNRPMLISLVKLMCTLFFSWHTPLACEQATECSV | 119 nM | 0.15 s⁻¹ | 1.07e+06 M⁻¹ s⁻¹ | 135 nM |  |  |  |  |  | 

From patent US20180237497A1 (CANCER RESEARCH TECHNOLOGY, published 2018)
